# Measured values: publication PMC7313238 (Journal of the American Society for Mass Spectrometry, 2020)
# Molecular target: the molecule itself
# Experiment: SEC + native MS
protein,measurement,value
"BX1 from Zea mays (zmBX1), wild type (enzyme) SRPVSDTMAALMAKGKTAFIPYITAGDPDLATTAEALRLLDGCGADVIELGVPCSDPYIDGPIIQASVARALASGTTMDAVLEMLREVTPELSCPVVLLSYYKPIMSRSLAEMKEAGVHGLIVPDLPYVAAHSLWSEAKNNNLELVLLTTPAIPEDRMKEITKASEGFVYLVSVNGVTGPRANVNPRVESLIQEVKKVTNKPVAVGFGISKPEHVKQIAQWGADGVIIGSAMVRQLGEAASPKQGLRRLEEYARGMKNALP",stoichiometry N,2
